Laboratory results from patent US10647739B2, “Flavonoids O-A-glucosylated on the B cycle, method for the production thereof and uses” (Institut National de la Recherche Agronomique, priority 2014, dated 2020).
Numbering of substitutions follows the chain as printed. Names and notes keep the numbering of the source.

B1: V331T: ASNp amylosucrase single mutant (protein, UniProt Q9ZEU2 1-636, looked up, variant V331T)
Amylosucrase: MLTPTQQVGLILQYLKTRILDIYTPEQRAGIEKSEDWRQFSRRMDTHFPKLMNELDSVYGNNEALLPMLEMLLAQAWQSYSQRNSSLKDIDIARENNPDWILSNKQVGGVCYVDLFAGDLKGLKDKIPYFQELGLTYLHLMPLFKCPEGKSDGGYAVSSYRDVNPALGTIGDLREVIAALHEAGISAVVDFIFNHTSNEHEWAQRCAAGDPLFDNFYYIFPDRRMPDQYDRTLREIFPDQHPGGFSQLEDGRWVWTTFNSFQWDLNYSNPWVFRAMAGEMLFLANLGVDILRMDAVAFIWKQMGTSCENLPQAHALIRAFNAVMRIAAPATFFKSEAIVHPDQVVQYIGQDECQIGYNPLQMALLWNTLATREVNLLHQALTYRHNLPEHTAWVNYVRSHDDIGWTFADEDAAYLGISGYDHRQFLNRFFVNRFDGSFARGVPFQYNPSTGDCRVSGTAAALVGLAQDDPHAVDRIKLLYSIALSTGGLPLIYLGDEVGTLNDDDWSQDSNKSDDSRWAHRPRYNEALYAQRNDPSTAAGQIYQGLRHMIAVRQSNPRFDGGRLVTFNTNNKHIIGYIRNNALLAFGNFSEYPQTVTAHTLQAMPFKAHDLIGGKTVSLNQDLTLQPYQVMWLEIA
B2: V331Y: ASNp amylosucrase single mutant (protein, UniProt Q9ZEU2 1-636, looked up, variant V331Y)
Amylosucrase: B1 Amylosucrase with T331Y
B3: V331F: ASNp amylosucrase single mutant (protein, UniProt Q9ZEU2 1-636, looked up, variant V331F)
Amylosucrase: B1 Amylosucrase with T331F
B4: V331D: ASNp amylosucrase single mutant (protein, UniProt Q9ZEU2 1-636, looked up, variant V331D)
Amylosucrase: B1 Amylosucrase with T331D
B5: V331K: ASNp amylosucrase single mutant (protein, UniProt Q9ZEU2 1-636, looked up, variant V331K)
Amylosucrase: B1 Amylosucrase with T331K
B6: V331H: ASNp amylosucrase single mutant (protein, UniProt Q9ZEU2 1-636, looked up, variant V331H)
Amylosucrase: B1 Amylosucrase with T331H
B7: V331E: ASNp amylosucrase single mutant (protein, UniProt Q9ZEU2 1-636, looked up, variant V331E)
Amylosucrase: B1 Amylosucrase with T331E
B8: V331I: ASNp amylosucrase single mutant (protein, UniProt Q9ZEU2 1-636, looked up, variant V331I)
Amylosucrase: B1 Amylosucrase with T331I
B9: V331C: ASNp amylosucrase single mutant (protein, UniProt Q9ZEU2 1-636, looked up, variant V331C)
Amylosucrase: B1 Amylosucrase with T331C
B10: V331G: ASNp amylosucrase single mutant (protein, UniProt Q9ZEU2 1-636, looked up, variant V331G)
Amylosucrase: B1 Amylosucrase with T331G
B11: V331W: ASNp amylosucrase single mutant (protein, UniProt Q9ZEU2 1-636, looked up, variant V331W)
Amylosucrase: B1 Amylosucrase with T331W

Test: naringenin glucosylation acceptor reaction with recombinant glucansucrases (microplate screening)
Assay type: biochemical
Conditions: sucrose 146 mM, naringenin 5 mM, 3% DMSO, 30° C., 24 h; HPLC-UV 340 nm peak areas
Experimental: (§1) The enzymatic extracts obtained are used to carry out the flavonoid glucosylation enzymatic screening reactions. The enzymatic activity of each centrifuged cell lysate is evaluated in the microplate format, by final weight after 30 minutes incubation in the presence of a final concentration of 146 mM of sucrose, by assaying the reducing sugars with 3,5-dinitrosalicylic acid (DNS). Finally, after dilution in ultrapure water, the absorbance is read at 540 nm.
(§2) The flavonoid acceptor reactions are then carried out in deep-well microplates, in a volume of 300 μl, at final concentrations of sucrose of 146 mM and of flavonoid of 2.5 mM (apigenin) or 5 mM (naringenin) (initially dissolved in 100% DMSO), and 140 μl of centrifuged cell lysate.
(§3) The final DMSO concentration in the reaction medium is 3% (v/v).
(§4) The incubation is carried out at 30° C. and at 700 rpm. After 24 hours, the enzymes are denatured at 95° C. for 15 minutes. These microplates are stored at −80° C. with a view to rapid evaluation of the flavonoid glucosylation by liquid-phase chromatography coupled to mass spectrometry (HPLC-MS or LC-MS).
(§5) With a view to their analyses by HPLC-MS, the extensively homogenized reaction media are diluted to 1/30th in DMSO. The separation of the flavonoids and of their glucosylated forms is carried out in reverse phase with a ProntoSlL Eurobond® 53×3.0 mm 120-3-C18-AQ column (porosity of 120 Å, particle size of 3 μm, C18 grafting, Bischoff Chromatography, Germany).
(§6) The flavonoid glucosylation efficiency was determined from the following formula: Glucosylation efficiency=(Σ(area of the peak of glucosylated flavonoid(s)))/(Σ(area of the peak of glucosylated flavonoid(s))+area of the peak of residual aglycone flavonoid)×100
The flavonoid glucosylation efficiency was determined from the formula set out in example 2. The flavonoid glucosylation efficiencies, expressed as a percentage, were calculated from the areas of the peaks of the various products analyzed, as described in example 1, by HPLC with a UV detector (λ340 nm), after 24 h of reaction.
B1 gave a naringenin glucosylation efficiency of 7.2%.
B2 gave a naringenin glucosylation efficiency of 3.8%.
With B3 the naringenin glucosylation efficiency was 0.0%.
With B4 the naringenin glucosylation efficiency was 0.0%.
With B5 the naringenin glucosylation efficiency was 0.0%.
Work on B6 yielded a naringenin glucosylation efficiency of 0.0%.
B7 showed a naringenin glucosylation efficiency of 0.0%.
B8 gave a naringenin glucosylation efficiency of 0.0%.
For B9, the naringenin glucosylation efficiency was 5.4%.
Molecule B10 has a naringenin glucosylation efficiency of 6.9%.
B11 showed a naringenin glucosylation efficiency of 0.0%.

Test: apigenin glucosylation acceptor reaction with recombinant glucansucrases (microplate screening)
Assay type: biochemical
Conditions: sucrose 146 mM, apigenin 2.5 mM, 3% DMSO, 30° C., 24 h; HPLC-UV 340 nm peak areas
Experimental: as §1, §2, §3, §4, §5, §6
The flavonoid glucosylation efficiencies, expressed as a percentage, were calculated from the areas of the peaks of the various products analyzed, as described in example 1, by HPLC with a UV detector (340 nm) after 24 h of reaction.
In the case of B1, the apigenin glucosylation efficiency is reported as 0.0%.
Molecule B2 has an apigenin glucosylation efficiency of 0.4%.
B3 showed an apigenin glucosylation efficiency of 0.4%.
With B4 the apigenin glucosylation efficiency was 0.9%.
Molecule B5 has an apigenin glucosylation efficiency of 0.2%.
B6 showed an apigenin glucosylation efficiency of 0.1%.
B7 showed an apigenin glucosylation efficiency of 0.7%.
In the case of B8, the apigenin glucosylation efficiency is reported as 0.3%.
Molecule B9 has an apigenin glucosylation efficiency of 1.2%.
Work on B10 yielded an apigenin glucosylation efficiency of 1.9%.
B11 showed an apigenin glucosylation efficiency of 0.2%.
